# Measurements taken from PMC8892012.
# Biological target: arrestin-3 fused to Renilla luciferase (UniProt P32121)
# Assay: BRET arrestin-3 interaction assay
# Settings: maximal zaprinast-stimulated BRET; receptor-eYFP co-transfected with arrestin-3-Renilla luciferase; n = 3, ± SD; parent: est. 100; read off a plot
# Chain of UniProt P32121 (P32121 whole entry, the tested form may be a part): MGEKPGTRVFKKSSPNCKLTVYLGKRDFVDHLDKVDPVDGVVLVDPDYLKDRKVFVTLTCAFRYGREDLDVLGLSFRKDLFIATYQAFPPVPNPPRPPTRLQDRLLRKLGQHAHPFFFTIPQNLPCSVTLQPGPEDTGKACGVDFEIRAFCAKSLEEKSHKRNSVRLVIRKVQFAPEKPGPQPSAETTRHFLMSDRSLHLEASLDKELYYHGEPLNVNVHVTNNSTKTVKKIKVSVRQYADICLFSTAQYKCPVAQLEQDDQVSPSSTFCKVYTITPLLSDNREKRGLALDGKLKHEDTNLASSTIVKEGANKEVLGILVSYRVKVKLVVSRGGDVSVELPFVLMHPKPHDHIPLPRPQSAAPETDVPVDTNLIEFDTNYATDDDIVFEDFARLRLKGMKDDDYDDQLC
row,Substance,percent of parent (% WT response)
1,rGPR35-eYFP S302A; S304A; T306A,33
2,rGPR35-eYFP S286A,125

# Continued, values first:
row,percent of parent (% WT response),Substance
1,7,rGPR35-eYFP S286A; T290A; S291A; S292A; T293A; S297A; T300A; S302A; S304A; T306A
2,83,rGPR35-eYFP T290A; S291A; S292A; T293A
3,10,rGPR35-eYFP S297A; T300A
